Measurements published in paper PMC6128652, “Structure of the Cladosporium fulvum Avr4 effector in complex with (GlcNAc)6 reveals the ligand-binding mechanism and uncouples its intrinsic function from recognition by the Cf-4 resistance protein” (PLoS Pathogens, 2018).
“Also recorded” adds a separate entry of the source.

What was measured:
[1] = Isothermal titration calorimetry (ITC) of CfAvr4 variants with chitin hexasaccharide; type: binding; conditions: ITC; for increase in the Kd relative to WT-CfAvr4: (GlcNAc)6
Protocol: A stock solution of the monomer of N-acetylglucosamine was prepared by dissolving the dry powder in a buffer containing 10 mM Bis-Tris, pH 6.5, 100 mM NaCl to a concentration of 0.100 g/L using analytic techniques. Standard solution of 0, 0.010, 0.025, 0.050, 0.075 g/L were prepared by serial dilutions. Using glass test tubes and pipets, 100 μL of each standard was mixed with 300μL of concentrated sulfuric acid and vortexed for 10 sec to mix. Solutions were incubated at RT for 10 min and then placed on ice to stop the reaction. […] Analytically prepared solution of the di- and tri-saccharide scaled linearly to the calibration curve. To determine the concentration of the chitin hexasaccharide solutions used in ITC, the solutions were diluted into the dynamic range of the calibration curve (S12 Fig) and subjected to the above procedure.
All ITC experiments were performed on a TA Instruments low volume NanoITC with a 186uL reaction cell and a reference cell filled with degassed Milli-Q grade water. Reactions were run in a buffer containing 10mM Bis-Tris, pH 6.5, 100 mM NaCl. The reservoir solution was filled with protein solution and continuously stirred while Chitin hexasaccharide solutions titrated in 2.5μL aliquots for 19 injections, with an initial 1μL injection, for a total injection volume of 48.5μL. The carbohydrate solutions were made by dissolving the dry powder in buffer to a concentration of 20mM (confirmed using methods described above) and then diluted to the working concentration using the final buffer exchange flow through to match the buffers as closely as possible. The integrated heats, after correction for the heat of dilution were analyzed using the NanoAnalyze software from […]. An individual binding site model was used to fit the binding isotherm. All experiments were replicated a minimum of three times.

[2] = system: germlings of Trichoderma viride; assay: In vitro protection assay of T. viride germlings against chitinases; type: cell-based; conditions: 5 μM protein with chitinases and β-1,3-glucanases; for protection of fungal hyphae against chitinases, fungal growth: 6–8 h
Protocol: The ability of the WT-CfAvr4 and of ChBD mutants to protect against chitinases was evaluated in in vitro protection assays conducted as described before. Briefly, spores of T. viride (3∙10^3) were pre-germinated overnight at room temperature in 100 μl of half-strength PDB medium in 96 well plates. The following day, 5 μM of WT-CfAvr4 or ChBD mutants were mixed with 7.5 units of Zymolyase (Zymo Research cat. no. E1004) and 0.2 units of bacterial chitinases (Sigma-Aldrich cat. no. C6137) and the mixture was added to the microtitre plate wells containing the pre-germinated spores in a final volume of 150 μl. Plates were incubated at 25°C for 6–8 h before evaluating under the microscope fungal growth and the ability of the proteins to provide protection against chitinases. Zymolase has β-1,3 glucanase and β-1,3-glucan laminaripentaohydrolase activity and is added to the mixture in order to remove the surface glucans from the fungal cell wall and thus expose the underlying chitin layer.

Cf-4 immune receptor = assay: Pure protein infiltrations into tomato leaves of cv Purdue 135 (+ Cf-4), hypersensitive response; type: in vivo; conditions: 5 dpi
Description: Tomato seeds were obtained from the Tomato Genetic Resource Center (TGRC) at UC Davis. WT-CfAvr4 and mutants thereof with single point mutations at selected amino acids were produced and purified from E. coli Rosetta-gami B cells as description above. […]

Cf-4 = assay: Agrobacterium tumefaciens transient transformation assay (ATTA): co-expression with Cf-4 in Nicotiana benthamiana leaves; type: in vivo; conditions: N. benthamiana, three cell density ratios 0.5:1, 1:1, 2:1
Protocol: The Agrobacterium tumefaciens transient transformation assay (ATTA) was used for the transient co-expression into leaves of Nicotiana benthamiana of Cf-4 with the WT-CfAvr4 and the mutants thereof tested in this study. Briefly, N. benthamiana plants were grown in a growth chamber with 16 h of artificial light and 70% humidity, at 25°C for 4 weeks. The true mature form of the WT-CfAvr4 (i.e. between Lys30-Gln115) and of the mutants thereof were singly cloned into the binary expression vector pICH47742 downstream of the PR1A signal sequence of Nicotiana tabacum for targeted secretion into the apoplast, and under the control of CaMV 35S promoter and NOS terminator. The tomato Cf-4 was cloned into pMOG800 as descripted before. Binary vector plasmids were transformed into A. tumefaciens strain GV3101 by electroporation. For the ATTA assay, agrobacteria transformed with pMOG800:Cf-4 was grown in 10mL LB-mannitol medium (LB medium with 10 g/L mannitol) amended with 50 μg/mL kanamycin and 25 μg/mL rifampicin, whereas agrobacteria transformed with pICH47742:WT-CfAvr4 or pICH4774:CfAvr4-mutants were grown in LB-mannitol amended with 100 μg/mL carbenicillin and 25 μg/mL rifampicin. All cultures were incubated at 28°C for 2 days, after which period they were pelleted at 2800g for 15 min, re-suspended in MMAi medium (5 g/L Murashige and Skoog basal salts, 20 g/L sucrose, 10 mM MES, and […]) at an optical cell density (A600) of 2.0, and further incubated for 2–4 h at room temperature. Agroinfiltrations were performed by mixing agrobacteria containing pMOG800:Cf-4 with agrobacteria containing pICH47742_WT-CfAvr4 or pICH47742:CfAvr4-mutants at three different ratios of optical cell densities, i.e. A6000.5:A6001.0, A6000.5:A6000.5, and A6000.5:A6000.25 of. The mixture of agrobacteria was infiltrated into the leaves of N. benthamiana plants using a 1 mL syringe and the induction of an HR in the infiltrated leaf sectors was evaluated at 5 days post-infiltrations. Control infiltrations were made using only the pMOG800:Cf-4 transformed agrobacteria and the agrobacteria containing pICH47742:CfAvr4 or the mutants thereof without mixing the two cultures, at cell densities of A6000.25, A6000.5, and A6001.0.

subtilisin = assay: Subtilisin treatment (resistance against proteolytic degradation); type: in vitro ADME; parameters: key to Stability (Subtilisin assay): S: stable; PU: partially unstable; conditions: for Stability (Subtilisin assay): 500 ng/μL subtilisin, 30 min, room temperature; for susceptibility to proteolytic degradation by subtilisin: 500 ng/μl subtilisin, band of mature CfAvr4 on SDS-PAGE
Protocol: The WT-CfAvr4 and selected mutants thereof were exposed to the non-specific protease subtilisin in order to determine their resistance against proteolytic degradation. Treatments with subtilisin were made as previously described with minor modifications. Briefly, 40 μM of the E. coli-produced CfAvr4 and the selected CfAvr4 mutants were mixed with 10 mM of calcium chloride and 500 ng/μL of subtilisin (Sigma-Aldrich) in a total volume of 15 μL. Samples were incubated for 30 min at room temperature, after which period they were denatured by mixing with 10 mM PMSF and SDS-PAGE loading buffer, and heating at 98°C for 10 min. Digestion products were visualized on an SDS-PAGE after staining with Coomassie blue.

B1: Q69N (protein)
chain: KAPKTQPYNPCKPQEVIDTKCMGPKDCLYPNPDSCTTYINCVPLDEVGNAKPVVKPCPKGLQWNDNVGKKWCDYPNLSTCPVKTPQ
modifications: left off: 6x His (two), N-terminal, state not stated
With B1 the “increase in the Kd relative to WT-CfAvr4” value [1] was ~ 20 fold, the “morphology of hyphae after chitinase treatment” value [2] was “signs of osmotic injuries such as swollen segments and coagulated cytoplasm; also recorded: signs of osmotic injuries, such as swollen segments and coagulated cytoplasm” and the “protection of fungal hyphae against chitinases, fungal growth” value (“protection of fungal hyphae” below) [2] was “enable fungal growth to levels comparable to those of the WT-CfAvr4”. For the same molecule, the “Cf-4-mediated HR after protein infiltration” value (shortened to “Cf-4-mediated HR”) (Cf-4 immune receptor; 5 μg/ml) was “weak HR response”, the “Cf-4-mediated HR” value (Cf-4 immune receptor; 10 μg/ml) was “elicited an HR” and the “Cf-4-mediated HR” value (Cf-4 immune receptor; both 5 μg/ml and 10 μg/ml) was “only partially trigger an HR”. For the same molecule, the “HR on transient co-expression with Cf-4” value (Cf-4) was “strong and similar in intensity HR”, the “Stability (Subtilisin assay)” value (subtilisin) was “PU” and the “susceptibility to proteolytic degradation by subtilisin” value (“susceptibility” below) (subtilisin) was “vulnerable to proteolytic degradation; also recorded: decreased intensity of this band”.

B2: K84A (protein)
chain: KAPKTQPYNPCKPQEVIDTKCMGPKDCLYPNPDSCTTYIQCVPLDEVGNAKPVVAPCPKGLQWNDNVGKKWCDYPNLSTCPVKTPQ
modifications: left off: 6x His (two), N-terminal, state not stated
In the case of B2, the “increase in the Kd relative to WT-CfAvr4” value [1] is reported as ~ 20 fold, the “morphology of hyphae after chitinase treatment” value [2] is reported as “signs of osmotic injuries such as swollen segments and coagulated cytoplasm; also recorded: signs of osmotic injuries, such as swollen segments and coagulated cytoplasm” and the “protection of fungal hyphae” value [2] is reported as “enable fungal growth to levels comparable to those of the WT-CfAvr4”. For the same molecule, the “Cf-4-mediated HR” value (Cf-4 immune receptor; both 5 μg/ml and 10 μg/ml) was “strong and equal in intensity HR; also recorded: full HR; also recorded: strong and equally in intensity necrosis”, the “HR on transient co-expression with Cf-4” value (Cf-4) was “full HR; also recorded: strong and similar in intensity HR” and the “Stability (Subtilisin assay)” value (subtilisin) was “S”. For the same molecule, the “susceptibility” value (subtilisin) was “as resilient to proteolysis as the WT-CfAvr4”.

B3: W100A (protein)
chain: KAPKTQPYNPCKPQEVIDTKCMGPKDCLYPNPDSCTTYIQCVPLDEVGNAKPVVKPCPKGLQWNDNVGKKACDYPNLSTCPVKTPQ
modifications: left off: 6x His (two), N-terminal, state not stated
For B3, the “effect of the mutation on binding to (GlcNAc)6” value ([1]; compared with WT-CfAvr4) was “abolished all detectable binding”, the “protection of fungal hyphae” value [2] was “essentially failed to protect the fungal hyphae against chitinases; also recorded: fail to protect the fungal hyphae” and the “Cf-4-mediated HR” value (Cf-4 immune receptor; both 5 μg/ml and 10 μg/ml) was “strong and equal in intensity HR; also recorded: full HR; also recorded: strong and equally in intensity necrosis”. The “HR on transient co-expression with Cf-4” value (Cf-4) was “full HR; also recorded: strong and similar in intensity HR”, the “Stability (Subtilisin assay)” value (subtilisin) was “S” and the “susceptibility” value (subtilisin) was “as resilient to proteolysis as the WT-CfAvr4”.
